{"source": "paper PMC12823420", "about": "(Nature, 2024)", "binders": {"B1": {"name": "10×His-SUMO-3V5-tagged SARNP UCM-1 (residues 82-115) (peptide)", "chain": "VDVAAEKKVVKITSEIPQTERMQKRAERFNVPVS", "notes": "also called Sumo-V5–UCM-1; SUMO-V5-3C–UCM; source: E. coli BL21 DE3 RIL, purified (HisTrap, HiTrapQ, Superdex 75)"}, "B2": {"name": "SARNP UCM-4 peptide, biotinylated (peptide)", "chain": "SISRKSEDDEKLKKRKERFGIVTS", "modifications": "also: biotinylated, site not given here"}, "B3": {"name": "MBP-tagged ALYREF^C (residues 106–257) (domain or fragment)", "chain": "not shown", "notes": "also called ALYREF harbouring only a C-UBM"}, "B4": {"name": "MBP-tagged ALYREF^N (residues 1–182) (domain or fragment)", "chain": "not shown", "notes": "also called ALYREF construct harbouring only an N-UBM"}, "B5": {"name": "MBP-SARNP^47–210-3C-3V5-SUMO-10×His (domain or fragment, human, UniProt P82979 47-210, looked up)", "chain": "EEEANEEDVLGDETEEEETKPIELPVKEEEPPEKTVDVAAEKKVVKITSEIPQTERMQKRAERFNVPVSLESKKAARAARFGISSVPTKGLSSDNKPMVNLDKLKERAQRFGLNVSSISRKSEDDEKLKKRKERFGIVTSSAGTGTTEDTEAKKRKRAERFGIA", "notes": "SARNP, human, residues 47-210; also called MBP-SARNP residues 47-210; SARNP lacking the N-terminal SAP domain; source: E. coli BL21 DE3 RIL, purified; not shown: MBP, N-terminal, kept"}, "B6": {"name": "SARNP-6×His (full-length SARNP) (natural protein, human, UniProt P82979 1-210, looked up)", "chain": "MATETVELHKLKLAELKQECLARGLETKGIKQDLIHRLQAYLEEHAEEEANEEDVLGDETEEEETKPIELPVKEEEPPEKTVDVAAEKKVVKITSEIPQTERMQKRAERFNVPVSLESKKAARAARFGISSVPTKGLSSDNKPMVNLDKLKERAQRFGLNVSSISRKSEDDEKLKKRKERFGIVTSSAGTGTTEDTEAKKRKRAERFGIA", "notes": "SARNP, human; also called CIP29; recombinant full length SARNP; source: E. coli BL21 DE3 RIL, purified (HisTrap, HiTrapQ, Superdex 200)"}}, "conditions_in_all_cases": "both partners purified", "key": {"UAP56 [1]": {"target": "T1, UAP56 (human, UniProt Q13838 1-428)", "T1 construct": "The methods name 6×His-TwinSTREPII-3C-UAP56 and 10×His-3C-UAP56; also called DDX39B; DDX39", "assay": "pull-down"}, "UAP56 [2]": {"target": "T1, UAP56", "assay": "grating-coupled interferometry (GCI); biotinylated UBM or UCM peptides captured on a streptavidin chip; UAP56 injected; 25 mM HEPES pH 7.9, 50 mM KCl, 1 mM MgCl2, 1 mM TCEP, 25 °C; one-to-one model; UCM peptides also with AMP-PNP or AMP-PNP and 15 U RNA"}, "UAP56 [3]": {"target": "T1, UAP56", "assay": "pull-down; MBP-tagged full-length or truncated ALYREF (2.5 µM) on amylose resin with 12.5 µM UAP56, UCM-1, N-UBM or C-UBM or 6 µM full-length SARNP; with or without 1 mM ATP and 200 µM 15 U RNA; Coomassie"}, "Flag-tagged UAP56": {"target": "T2, Flag-tagged UAP56 (human, UniProt Q13838 1-428)", "T2 construct": "Used in an in vitro pull-down analysed by Coomassie staining", "assay": "pull-down; Flag-tagged UAP56 (5 µM) on anti-Flag M2 beads with WT or mutant SARNP (20 µM); buffer A2, room temperature 1 h; Coomassie"}}, "note": "Where no end group is shown, it is not given here."}
{"binder": "B1", "values": [{"measurement": "binding result", "setting": "UAP56 [1]", "result": "binds"}]}
{"binder": "B2", "values": [{"measurement": "Kd", "setting": "UAP56 [2]", "result": "10 to 20", "unit": "µM"}]}
{"binder": "B3", "values": [{"measurement": "binding result", "setting": "UAP56 [3]", "result": "binds"}]}
{"binder": "B4", "values": [{"measurement": "binding result", "setting": "UAP56 [3]", "result": "binds"}]}
{"binder": "B5", "values": [{"measurement": "binding result", "setting": "Flag-tagged UAP56", "result": "binds"}]}
{"binder": "B6", "values": [{"measurement": "binding result", "setting": "Flag-tagged UAP56", "result": "binds"}]}
